Experimental data reported in patent publication US20100119506A1, “Effectors of PAR-2 Activation and Their Use in the Modulation of Inflammation” (BOEHRINGER INGELHEIM INTERNATIONAL GMBH, priority 2008, published 2010).
Entries after “also recorded” stand apart in the source; their conditions may differ.

Key:
PAR-2 [1] = experiment: Affinity for PAR-2 in phage display selection and affinity maturation; assay type: binding; conditions: initial selection, Fab
Text: Antibody phage display techniques were employed to pan for antibodies (Fab fragments) capable of immunospecifically binding to residues spanning the protease cleavage site at the N-terminal of PAR-2. […] The sequences of the heavy (IgG4) and light (lambda) chain variable regions of the antibody Ab3777 are presented below (CDR residues are underlined): […]

[2] = tested on: labeled peptide representing the N-terminus of PAR-2; experiment: FRET-based PAR-2 peptide cleavage assay (trypsin); assay type: biochemical
Method: (§1) To assess the ability of antibody Ab3777 to block trypsin mediated cleavage of the PAR-2 N-terminus, antibodies were tested in a FRET assay that measures an increase in fluorescence upon cleavage of a labeled peptide representing the N-terminus of PAR-2. […] To assess the ability of antibodies to block trypsin mediated cleavage of the PAR-2 N-terminus on cells, HEK transfectants over-expressing FLAG-tagged PAR-2 were treated with trypsin in the presence or absence of Ab3777 dHLX bivalent Fabs. Activation of PAR-2 results in cleavage/internalization of the receptor resulting in a loss of the FLAG epitope as detected by an antibody in a flow cytometry assay (FIG. 3).
Affinity matured and cross-cloned antibodies in the IgG4_Pro format were evaluated for cell binding, inhibition of trypsin induced calcium responses in a FLIPR assay, inhibition of PAR-2 peptide cleavage in a FRET assay and inhibition of PAR-2 cleavage in a cell based assay system. All candidates show excellent apparent affinity (EC50) for PAR-2 transfected cells and maximal efficacy and potency in all short term cellular assays (Table 4).

FLAG-tagged PAR-2 = target: T1, FLAG-tagged PAR-2 (Homo sapiens, UniProt P55085); experiment: FLAG-PAR-2 cell-based cleavage assay (flow cytometry); conditions: dHLX bivalent Fab; trypsin 30 nM, 5 minutes
T1 construct: expressed in transfected cells; host or cells: HEK
T1 sequence (P55085 26-397): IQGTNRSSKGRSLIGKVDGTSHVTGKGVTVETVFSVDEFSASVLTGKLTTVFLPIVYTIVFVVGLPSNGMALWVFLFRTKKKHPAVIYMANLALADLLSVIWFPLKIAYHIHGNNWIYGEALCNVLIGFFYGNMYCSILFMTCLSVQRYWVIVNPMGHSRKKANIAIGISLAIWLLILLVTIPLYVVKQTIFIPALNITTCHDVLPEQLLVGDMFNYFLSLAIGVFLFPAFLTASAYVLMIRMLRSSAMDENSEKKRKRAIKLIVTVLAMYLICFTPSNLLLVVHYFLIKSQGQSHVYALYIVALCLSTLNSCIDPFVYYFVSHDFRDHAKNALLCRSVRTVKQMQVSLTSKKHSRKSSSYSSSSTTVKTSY
Method: as §1, with “Activation of PAR-2 results in cleavage/internalization of the receptor resulting in a loss of the FLAG epitope as detected by an antibody in a flow cytometry assay (FIG. 3).” left out
Detection of the FLAG-tag on the cell surface correlates with inhibitory activity.

PAR-2 [3] = target: T2, PAR-2 (Homo sapiens, UniProt P55085); experiment: Trypsin induced calcium response (FLIPR) in A549 cells; assay type: cell-based; set-up: expressing endogenous PAR-2; endogenous in cells; host or cells: A549; conditions: A549 cells
T2 sequence (P55085 26-397): T1 sequence (P55085 26-397)
Method: Using A549 cells, PAR-2 activation was measured by detecting the calcium response following trypsin stimulation. Fabs were tested in this assay for their ability to inhibit this response. […] Antibody concentrations are expressed as μg/ml (FIG. 6).
Thrombin activates PAR-1, whereas PAR-2 is activated by trypsin in A549 cells.

B1: Ab3777: parental anti-PAR-2 antibody from phage display; light chain SEQ ID NO:6, heavy chain SEQ ID NO:7 (antibody, V domains shown)
VH: QVQLVESGGGLVQPGGSLRLSCAASGFTFSSYAMNWVRQAPGKGLEWVSTISYSSSATSYADSVKGRFTISRDNSKNTLYLQMNSLRAEDTAVYYCARIQNDPMDVWGQGTLVTVSS
VL: DIELTQPPSVSVAPGQTARISCSGDNLGKKYVQWYQQKPGQAPVLVIYDDSNRPSGIPERFSGSNSGNTATLTISGTQAEDEADYYCSSWDVGSDGWVFGGGTKLTVLGQ
modifications: Antibody identified via phage display
- Kd (PAR-2 [1]): 65 nM
- inhibition of trypsin cleavage of PAR-2 peptide (in words) [2]: partial inhibition; also recorded: partially block this cleavage in a transient manner
- inhibition in cellular cleavage assay (in words) (FLAG-tagged PAR-2): partial inhibition
- activity in trypsin induced calcium response assay (in words) (PAR-2 [3]; IgG1 format): active but weaker
- inhibition in trypsin induced calcium response assay (in words) (PAR-2 [3]; bivalent Fab format): partial dose-dependent inhibition
- activity in trypsin induced calcium response assay (in words) (PAR-2 [3]; monovalent format): not active
